Results on one substance are retold here after article PMC11406251.

The target in experiment [1] is HCMV gB ectodomain base construct (gB Base) (human cytomegalovirus, Towne strain) (UniProt P13201). Kind of experiment: cryo-EM structure.
Experiment [2] has the same target. Kind of experiment: SEC; Superose 6 Increase 10/300 GL; 2 mM Tris pH 8.0, 200 mM NaCl, 0.02% sodium azide; LMW peak ~14 mL (trimers), HMW peak ~12 mL (oligomers of trimers).

As to “HCMV gB ectodomain base construct (gB Base) (from UniProt P13201 23-704) (domain or fragment)”, the stoichiometry N in experiment [1] and in experiment [2] was 3 in each case.
